From US20210292423A1 (published 2021) come the findings set out here.

Test [1] deals with T1, human CD3ε/δ-Fc fusion protein (soluble recombinant CD3ε/δ complex) (human, UniProt P04234 22-105).
T1 construct: also called huCD3ε/δ; huCD3; not shown: hinge, CH2, CH3 of human IgG with tag
The test is described as follows: SPR single point, hybridoma supernatant. As to the method:
Rats with positive sera were scarified and B cells were fused with mouse myeloma cells. The resulting hybrndomas were screened on HEK293 cells transfected with human or cynomoligus CD3ε and CD3δ expression plasmids, on Jurkat E6.1 (CD3+) and Jurkat T3.5 (CD3-) by flow cytometry. Supernatant of Hybridoma clones was used to assess by surface plasmon resonance single point kinetic against human and Macaca fascicularis CD3ε/δ complex by fixing the analyte at 25 nM (data presented in table 3).

For test [2], the target named is T1, human CD3ε/δ-Fc fusion protein (soluble …). The test is described as follows: SPR Biacore, CODV-Fab on recombinant CD3ε/δ. As to the method: Binding affinities of anti-CD3 binding Fabs or CODV-Fabs were measured by surface plasmon resonance (SPR) using a Biacore3000 instrument (GE Healthcare). Assay buffer was HBS-EP (BR-1001-88, GE Healthcare). Capture of CD3ε/δ-Fc fusion proteins was achieved using the human antibody capture kit (GE Healthcare). […] The CD3εδ-Fc fusions proteins were captured at 10 μl/min to approx. 70 RU to yield Rmax values of 30 RU. Binding kinetics with the anti-CD3 Fabs or CODV-Fabs was measured at 30 μl/min for 240 sec. and 600 sec. for association and dissociation phase, respectively. Twofold dilutions of Fabs from 3 to 400 nM in assay buffer were used. All Fab concentrations were run in duplicate together with duplicate buffer blanks for double referencing. Regeneration of the capture surface was performed with a 1 min injection of 3M MgCl2 solution at 30 μl/min. For data analysis the BIAevaluation software v.4.1 (GE Healthcare) was used. Data were fit globally using a 1:1 Langmuir model with mass transfer.
A general note: Surface plasmon resonance follows binding to a sensor surface in real time, without labels.

Changes are numbered by the printed parent chain.

T1 sequence (chain, as listed by the source mutant, chain 1 of 2): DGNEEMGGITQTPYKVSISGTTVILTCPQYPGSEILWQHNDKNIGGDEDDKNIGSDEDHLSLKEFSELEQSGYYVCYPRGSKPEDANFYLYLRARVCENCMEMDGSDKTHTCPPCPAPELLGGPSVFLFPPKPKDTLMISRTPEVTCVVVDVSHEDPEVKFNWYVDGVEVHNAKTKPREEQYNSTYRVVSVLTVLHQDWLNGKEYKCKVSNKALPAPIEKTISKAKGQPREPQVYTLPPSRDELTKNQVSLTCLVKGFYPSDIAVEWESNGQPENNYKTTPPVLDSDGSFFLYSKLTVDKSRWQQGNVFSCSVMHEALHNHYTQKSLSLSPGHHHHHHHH
T1 sequence (P04234 22-105, stated change not applied, chain 2 of 2): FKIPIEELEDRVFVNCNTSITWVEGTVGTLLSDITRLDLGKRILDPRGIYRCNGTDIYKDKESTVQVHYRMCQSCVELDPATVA

B1: 11F9-F8 anti-CD3 antibody (hybridoma supernatant) (antibody, V domains shown)
VH: EVQLVETGGTLVQPGKSLKLTCATSGFTFSNAWMHWVRQSPEKQLEWVAQIKAKSNNYATYYAESVKGRFTISRDDSKTSVYLQLNSLREEDTAIYYCRGTQYGYNPFDYWGQGVMVTVSS
VL: DVVLTQTPVSLSVSLGGQVSISCRSSQSLVHNNGNTYLSWSLQKPGQSPQVLIYKVSNRFSGISNRFSGSGSGTDFTLKISRVEPDDLGVYYCGQGAHYPFTFGSGTKLEIK
notes: rat IgG in hybridoma supernatant
Turning to B1, the “RU at 25 nM” value in test [1] is 11.5 RU.

B2: 3H6-D2 anti-CD3 antibody (hybridoma supernatant) (antibody, V domains shown)
VH: EVQLVETGGRLVQPGKSLKLTCATSGFTFSNAWMHWVRQSPEKQLEWVAQIKDKSNNYATYYAESVKGRFTISRDDSKSIIYLQMNSLKEEDTAIYYCRALTYYGYKRDAMDGWGHGTSVTVSS
VL: B1 VL with L4M, S41Y, V51L, N65D, A97T, H98Q, S105A, I111L
notes: as for B1
As for B2, the “RU at 25 nM” value in test [1] is 9.5 RU.

B3: 11F3-B9 anti-CD3 antibody (hybridoma supernatant) (antibody, V domains shown)
VH: EVQLVETGGSLVQPGKSLTLTCATSGFTFSNAWMHWVRQSPEKQLEWVAQIKAKSNNYATYYAESVKGRFTISRDDSKRSVYLQMNSLKEEDTAIYYCRYVNYGLAPMDVWGQGTSVTVSS
VL: B1 VL with L4M, N32D, S41Y, V51L, I63F, N65D, A97T, H98Q, S105A, I111L
notes: as for B1
B3: the “RU at 25 nM” value in test [1] was 22 RU.

B4: 11D7-C3 anti-CD3 antibody (hybridoma supernatant) (antibody, V domains shown)
VH: EVQFVETGGSLVQPGKSLKLTCATSGFTFSNAWMHWVRQSPEKQLEWVAQIKAKSNNYATYYAESVKGRFTISRDDSKSSVYLQMNSLKEEDTATYYCRGLYYGLSPSDYWGQGVMVTVSS
VL: B1 VL with L4M, S41Y, V51L, N65D, A97T
notes: as for B1
Turning to B4, in test [1], the “RU at 25 nM” value was 17 RU.

B5: 10F4-C10 anti-CD3 antibody (hybridoma supernatant) (antibody, V domains shown)
VH: B4 VH with F4L, L20I, V81I, T95I, G100A, L101V, Y102N, L105N, S106Y, S108L
VL: B1 VL with L4M, S41C, V51L, N65D, A97T, H98Q, S105A, I111L
notes: as for B1
As to B5, the “RU at 25 nM” value in test [1] was 22 RU.

B6: 4B4-D7 anti-CD3 antibody (hybridoma supernatant) (antibody, V domains shown)
VH: EVQLVETGGRLVQPGRSLKLTCATSGFTFSNAWMHWVRQSPEKQLEWVAQIKARSNNYATYYAESVKGRFTISRDDSKSTIYLQMNSLKEEDTAIYYCRGTYYASKPFDYWGQGVMVTVSS
VL: B1 VL with L4M, N32D, K44R, I63T, N65D, S68T, A97T, H98Q
notes: as for B1
Turning to B6, the “RU at 25 nM” value in test [1] stood at 11 RU.

B7: 10E6-G6 anti-CD3 antibody (hybridoma supernatant) (antibody, V domains shown)
VH: B1 VH with T10G, P14S, F29V, S30T, A59E, T79S, L85M, R89K
VL: B1 VL with L4M, T7S, N35Y, S41Y, L52F, N65D, V83I, A97T
notes: as for B1
Consider B7, for which the “RU at 25 nM” value in test [1] was 10.5 RU.

B8: 4E7-C9 anti-CD3 antibody (hybridoma supernatant) (antibody, V domains shown)
VH: EVQVVETGGSLVQPGKSLKLTCATSGFTFSNAWMHWVRQSPEKQLEWVAQIKDKSNNYATYYAESLKGRFTISRDDPKRSIYLQMNSLREEDTAIYYCRYVHYGIGYAMDAWGQGTSVTVSS
VL: B1 VL with L4M, V30E, S41Y, V51P, N65D, A97T, H98Q, S105P, I111L
notes: as for B1
As to B8, the “RU at 25 nM” value in test [1] is 2.5 RU.

B9: 20E5-F10 anti-CD3 antibody (hybridoma supernatant) (antibody, V domains shown)
VH: EVQLVETGENLVQPGKSLRLTCATSGFSFSNAWMHWIRQSPEKQLEWVAQIKDKSNNYATYYAESVNGRFTISRDDSKSSIYLHMDNLKEEDSAIYYCRYVHYGVRFFYTMDVWGQGTSVTVSS
VL: B1 VL with L4M, G17D, S25P, S41Y, Q50H, V51P, N65D, A97T, H98Q
notes: as for B1
As for B9, the “RU at 25 nM” value in test [1] came out at 12 RU.

B10: 16F8-A7 anti-CD3 antibody (hybridoma supernatant) (antibody, V domains shown)
VH: VETGGNLVQPGKSLKLTCATSGFTFSNAWMHWVRQSPEKQLEWVAQIKAKSNNYATYYAESVKGRFTISRDDSKSSVYLQMNSLKEEDTAIYYCRYVNYGLAPMDVWGQGTSVTVSS
VL: B1 VL with L4M, S41Y, V51L, I63F, N65D, A97T, H98Q, S105A, I111L
notes: as for B1
Regarding B10, the “RU at 25 nM” value in test [1] turned out to be 17.5 RU.

B11: 18G9-H11 anti-CD3 antibody (hybridoma supernatant) (antibody, V domains shown)
VH: EVQLVETGGSLVQPGKSLKLTCATSGFTFSNAWIQWVRQSPEKQLEWVAQIKAKSNNYATYYAESVKGRFTISRDDSKSSVYLQMNSLKEEDTALYYCTWRHYYSSHTMDAWGQGTLVTVSS
VL: B1 VL with L4M, S41Y, V51L, N65D, E84A, D86T, A97S, H98Q, S105A, I111L
notes: as for B1
With B11, the “RU at 25 nM” value in test [1] was found to be 7 RU.

B12: 12G3-E8 anti-CD3 antibody (hybridoma supernatant) (antibody, V domains shown)
VH: EVRVVETGGSLVQPGKSLKLTCATSGFTFSLAWMHWVRQSPEKKLEWVAQIKDKANNYATYYAESVKGRFTISRDDSKRSVYLQMNRLKEEDTAIYYCRGVYYGFSMTPFDYWGQGVMVTVSS
VL: B1 VL with V3A, L4M, S41Y, N65D, T74A, A97T, H98Q, S105A, I111L
notes: as for B1
In the case of B12, the “RU at 25 nM” value in test [1] is 24 RU.

B13: 13C1-F6 anti-CD3 antibody (hybridoma supernatant) (antibody, V domains shown)
VH: B1 VH
VL: DVVMTQSPVSLSVSLGGQVSISCRSSQSLVHNNGNTYLSWYLQRSGQSPQLLIYKVSNRLSGISDRFSGSGSGTDFTLKISRIEPDDLGVYYCGQGTQYPFTFGSGTRLEIK
notes: as for B1
Turning to B13, in test [1], the “RU at 25 nM” value was found to be 17 RU.

B14: 6C9-C9 anti-CD3 antibody (hybridoma supernatant) (antibody, V domains shown)
VH: AVQLVESGGGLVRPKESLKISCAASGFTFRNAAMYWVRQAPGKGLEWVARIRTQPNNYAKYYADSVKDRFTISRDDSKSMVYLQMDNLKTEDTAMYYCTGLVVTAMDAWGQGTSVTVSS
VL: DIQMTQSPSFLSASVGDRVTINCKASQNINKYLNWYQQKLGEAPKLLIYVTNNLQTGIPSRFSGSGSGTDYTLTISSLQPEDVATYFCLQHRSMYTFGTGTKLELK
notes: as for B1
For B14, the “RU at 25 nM” value in test [1] is 26 RU.

B15: 13H2-C3 anti-CD3 antibody (hybridoma supernatant) (antibody, V domains shown)
VH: B3 VH with V2E, Q3E, T19K, E42D, R79S, S87N, N102H, V110A
VL: B13 VL with S7T, R44K, S45A, L60F, T77I, I83V, Y91F, S105A, R108K, I111L
notes: rat IgG in hybridoma supernatant; also called 13H2-C2
As to B15, the “RU at 25 nM” value in test [1] worked out at 16 RU.

B16: CODV-Fab 7G3 × 20G6 with humanized 20G6 VL1C_VH1D (bispecific antibody)
light: DIVMTQTPLSLSVTPGQPASISCKSSQSLVHNNANTYLSWYLQKPGQSPQSLIYKVSNRFSGVPDRFSGSGSGTDFTLKISRVEAEDVGVYYCGQGTQYPFTFGSGTKVEIKGQPKAAPDFVMTQSPSSLTVTAGEKVTMSCKSSQSLLNSGNQKNYLTWYLQKPGQPPKLLIYWASTRESGVPDRFTGSGSGTDFTLTISSVQAEDLAVYYCQNDYSYPYTFGGGTKLEIKTKGPSRTVAAPSVFIFPPSDEQLKSGTASVVCLLNNFYPREAKVQWKVDNALQSGNSQESVTEQDSKDSTYSLSSTLTLSKADYEKHKVYACEVTHQGLSSPVTKSFNRGEC
heavy: EVQLQQSGPELVKPGASVKMSCKASGYTFTDYYMKWVKQSHGKSLEWIGDIIPSNGATFYNQKFKGKATLTVDRSSSTAYMHLNSLTSEDSAVYYCTRSHLLRASWFAYWGQGTLVTVSASQVQLVESGGGVVQPGRSLRLSCAASGFTFTKAWMHWVRQAPGKQLEWVAQIKDKSNSYATYYADSVKGRFTISRDDSKNTLYLQMNSLRAEDTAVYYCRGVYYALSPFDYWGQGTLVTVSSRTASTKGPSVFPLAPSSKSTSGGTAALGCLVKDYFPEPVTVSWNSGALTSGVHTFPAVLQSSGLYSLSSVVTVPSSSLGTQTYICNVNHKPSNTKVDKKVEPKSCDKTHTHHHHHH
Consider B16, for which, in test [2], the Kd (usually the constant that tells how readily two partners part at equilibrium) was 44 nM; the off-rate (koff) (in general, a measure of how fast the partners let go of each other) is 0.00101 s⁻¹; the kon (commonly the rate constant with which the complex forms) was 23000 M⁻¹ s⁻¹.

B17: CODV-Fab 7G3 × 20G6 with humanized 20G6 VL1D_VH1D (bispecific antibody)
light: B16 light with A34G
heavy: B16 heavy
notes: same V domains as hz20G6x7G3 but the other order
Take B17: in test [2], the Kd stood at 31 nM, the koff is 0.000746 s⁻¹ and the kon stood at 24000 M⁻¹ s⁻¹.

B18: CODV-Fab 7G3 × 20G6 with humanized 20G6 VL1D_VH1C (bispecific antibody)
light: B16 light with A34G
heavy: B16 heavy with D185A
Regarding B18, in test [2], the Kd was 32.1 nM, the koff came to 0.000713 s⁻¹ and the kon amounted to 22200 M⁻¹ s⁻¹.

B19: 8H2-F3 anti-CD3 antibody (hybridoma supernatant) (antibody, V domains shown)
VH: QIQLVQSGPELKKPGESVKISCKASGYTFTDFAMNWVKQAPGNGLKWMGWINTQTGKPTYADGFKQRFVFSLETSASTIYLQINNLNIEDTATYFCTRGALASVGQGVMVTVSS
VL: DVVMTQTPVSLSVAIGQPASISCKSSQSLVGTSGKTYLNWLLQRPGQSPKRLIYLVSKLDSGIPDRFSGSGSETDFTLKISRVETDDLGVYYCLQGSHFPLTFGSGTKLEIK
notes: as for B1
In the case of B19, the “RU at 25 nM” value in test [1] amounted to 32.5 RU.

B20: 18H11-F10 anti-CD3 antibody (hybridoma supernatant) (antibody, V domains shown)
VH: EVQLVESGGGLVQPGRSLKLSCAASGFIFSDYYMAWVRQAPKKGLEWVATISISGSRTYYPDSVKGRFTVSRDNAKSSLYLQMNSLKSEDTATYYCATNNPGGWFVYWGQGTLVTVSS
VL: NIQMTQSPSLLSASVGDRVTLSCKAGQNINNDLAWYQQKLGEAPRLLIYNANSLQTGIPSRFSGSGSGADFTLTISSLQPEDVATYFCQQYSSGDTFGAGTKLELK
notes: as for B1
As to B20, the “RU at 25 nM” value in test [1] turned out to be 35 RU.
